# Legend:
# [1] = test system: zmPPL_1360-r23a1 ZFN monomer (synthetic construct); assay: cell_activity; conditions: ZFN pair with zmPPL_1360-30a1 in bombarded haploid maize callus; control 5.0; locus target SEQ 32
# [2] = test system: zmPPL_1360-30a1 ZFN monomer (synthetic construct); assay: cell_activity; conditions: ZFN pair with zmPPL_1360-r23a1 in bombarded haploid maize callus; control 5.0; locus target SEQ 32
Sequence,activity (indels per 1 million high quality reads) [1],activity (indels per 1 million high quality reads) [2]
ACTCCGTATGCGAAGGCA (double strand) [zmPPL_1360-r23a1 half-site (PPL1 locus)],40,–
TTCGCGGTGGGACACTTG (double strand) [zmPPL_1360-30a1 half-site (PPL1 locus)],–,40
